Publication PMC9482650, “Quantitative fragmentomics allow affinity mapping of interactomes” (Nature Communications, 2022)
Each block holds one binder with its values, some of them ahead of it.

What was measured:
Assay in all cases: holdup assay
Parameters in all cases: key: below the threshold = too weak to quantify, mostly under pKd 3.1 to 4
[1] = target: T1, ARHGAP21, Q5T5U3
T1 sequence (Q5T5U3 45-169, limits assumed, looked up): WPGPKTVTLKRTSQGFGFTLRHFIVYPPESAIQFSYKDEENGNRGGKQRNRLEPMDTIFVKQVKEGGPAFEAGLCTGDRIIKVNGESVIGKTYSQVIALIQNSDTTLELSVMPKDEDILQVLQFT

[2] = target: IL16_1, Q14005
Chain of IL16_1, Q14005 (Q14005 210-306): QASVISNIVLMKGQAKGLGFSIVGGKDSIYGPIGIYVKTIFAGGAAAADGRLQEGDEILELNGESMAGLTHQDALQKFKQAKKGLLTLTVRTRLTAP

[3] = target: GRIP2_6, Q9C0E4
Chain of GRIP2_6, Q9C0E4 (Q9C0E4 648-740): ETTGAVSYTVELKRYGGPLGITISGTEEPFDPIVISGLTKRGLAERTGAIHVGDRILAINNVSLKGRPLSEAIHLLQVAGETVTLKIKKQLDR

[4] = target: T2, SNTG1, Q9NSN8
T2 sequence (Q9NSN8 52-150, limits assumed, looked up): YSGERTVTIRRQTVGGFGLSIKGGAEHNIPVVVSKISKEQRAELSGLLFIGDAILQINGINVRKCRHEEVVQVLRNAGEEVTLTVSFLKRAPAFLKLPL

[5] = target: T3, LIN7A, O14910
T3 sequence (O14910 103-200, limits assumed, looked up): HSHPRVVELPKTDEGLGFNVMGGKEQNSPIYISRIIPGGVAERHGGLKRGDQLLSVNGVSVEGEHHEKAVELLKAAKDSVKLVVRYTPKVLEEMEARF

[6] = target: DLG4_2, P78352
Chain of DLG4_2, P78352 (P78352 155-259): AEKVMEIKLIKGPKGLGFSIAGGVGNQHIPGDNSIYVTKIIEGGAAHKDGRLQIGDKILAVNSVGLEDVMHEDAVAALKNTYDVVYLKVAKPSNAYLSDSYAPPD

[7] = target: T4, ARHGEF11, O15085
T4 sequence (O15085 42-136, limits assumed, looked up): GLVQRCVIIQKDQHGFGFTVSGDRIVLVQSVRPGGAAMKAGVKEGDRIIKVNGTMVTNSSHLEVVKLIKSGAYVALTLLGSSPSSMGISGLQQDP

[8] = target: MAST1, Q9Y2H9
Chain of MAST1, Q9Y2H9 (Q9Y2H9 962-1065): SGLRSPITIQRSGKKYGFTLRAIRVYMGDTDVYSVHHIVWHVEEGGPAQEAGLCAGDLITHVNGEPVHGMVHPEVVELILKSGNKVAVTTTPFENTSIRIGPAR

[9] = target: DLG2_3, Q15700
[10] = target: MAGI1_1, Q96QZ7
Chain of MAGI1_1, Q96QZ7 (Q96QZ7 1-106): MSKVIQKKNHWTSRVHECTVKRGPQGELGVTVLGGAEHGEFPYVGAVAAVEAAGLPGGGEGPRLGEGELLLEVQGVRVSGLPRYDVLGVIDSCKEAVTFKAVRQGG

[11] = target: PDZRN4_1, Q6ZMN7
Chain of PDZRN4_1, Q6ZMN7 (Q6ZMN7 213-318): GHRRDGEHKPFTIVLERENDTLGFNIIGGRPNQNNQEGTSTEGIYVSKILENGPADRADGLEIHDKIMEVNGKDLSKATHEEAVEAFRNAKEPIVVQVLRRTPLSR

[12] = target: DLG2_2, Q15700
[13] = target: HTRA1, Q92743
Chain of HTRA1, Q92743 (Q92743 360-477): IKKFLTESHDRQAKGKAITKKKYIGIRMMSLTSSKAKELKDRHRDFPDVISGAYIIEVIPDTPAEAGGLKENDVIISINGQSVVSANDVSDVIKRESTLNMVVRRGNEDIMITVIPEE

[14] = target: PARD3_3, Q8TEW0
Chain of PARD3_3, Q8TEW0 (Q8TEW0 582-685): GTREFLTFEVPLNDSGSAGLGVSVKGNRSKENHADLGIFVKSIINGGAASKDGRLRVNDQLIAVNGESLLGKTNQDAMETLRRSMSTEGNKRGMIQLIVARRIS

[15] = target: LIMK2, P53671
Chain of LIMK2, P53671 (P53671 143-248): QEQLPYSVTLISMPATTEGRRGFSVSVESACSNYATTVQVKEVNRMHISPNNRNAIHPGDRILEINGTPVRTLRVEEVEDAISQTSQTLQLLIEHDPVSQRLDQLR

[16] = target: NHERF2_2, Q15599
Chain of NHERF2_2, Q15599 (Q15599 142-238): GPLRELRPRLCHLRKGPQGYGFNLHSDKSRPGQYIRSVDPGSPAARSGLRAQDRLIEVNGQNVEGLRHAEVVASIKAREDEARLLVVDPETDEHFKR

[17] = target: MAGI2_3, Q86UL8
Chain of MAGI2_3, Q86UL8 (Q86UL8 600-682): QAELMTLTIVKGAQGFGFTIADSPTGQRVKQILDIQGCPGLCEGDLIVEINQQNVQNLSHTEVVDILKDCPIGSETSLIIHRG

[18] = target: T5, APBA2_1, Q99767
T5 sequence (Q99767 563-664, limits assumed, looked up): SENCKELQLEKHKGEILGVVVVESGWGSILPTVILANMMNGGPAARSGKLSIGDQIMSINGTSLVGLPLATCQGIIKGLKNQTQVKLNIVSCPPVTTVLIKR

[19] = target: DLG4_1, P78352
Chain of DLG4_1, P78352 (P78352 62-152): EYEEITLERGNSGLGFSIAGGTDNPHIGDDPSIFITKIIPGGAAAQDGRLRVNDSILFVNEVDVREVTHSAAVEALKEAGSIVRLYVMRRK

[20] = target: T6, TX1BP3, O14907
T6 sequence (O14907 10-122, limits assumed, looked up): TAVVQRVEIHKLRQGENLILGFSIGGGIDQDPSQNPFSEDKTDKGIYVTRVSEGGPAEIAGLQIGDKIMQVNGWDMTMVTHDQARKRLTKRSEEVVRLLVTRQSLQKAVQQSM

[21] = target: GRIP2_3, Q9C0E4
Chain of GRIP2_3, Q9C0E4 (Q9C0E4 238-339): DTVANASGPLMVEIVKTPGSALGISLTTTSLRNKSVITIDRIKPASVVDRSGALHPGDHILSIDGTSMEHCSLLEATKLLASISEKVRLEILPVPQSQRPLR

[22] = target: T7, RAPGEF6, Q8TEU7
T7 sequence (Q8TEU7 525-625, limits assumed, looked up): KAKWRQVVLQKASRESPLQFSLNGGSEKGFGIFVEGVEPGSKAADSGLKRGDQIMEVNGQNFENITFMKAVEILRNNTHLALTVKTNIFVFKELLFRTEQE

[23] = target: T8, SYNJ2BP, P57105
T8 sequence (P57105 8-110, limits assumed, looked up): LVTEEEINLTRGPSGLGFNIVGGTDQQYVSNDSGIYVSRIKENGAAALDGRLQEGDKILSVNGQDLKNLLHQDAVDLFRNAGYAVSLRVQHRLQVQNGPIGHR

[24] = target: PTPN3, P26045
Chain of PTPN3, P26045 (P26045 505-587): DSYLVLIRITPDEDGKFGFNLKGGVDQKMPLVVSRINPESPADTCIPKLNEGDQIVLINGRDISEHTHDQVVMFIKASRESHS

[25] = target: T9, RADIL, Q96JH8
T9 sequence (Q96JH8 971-1071, limits assumed, looked up): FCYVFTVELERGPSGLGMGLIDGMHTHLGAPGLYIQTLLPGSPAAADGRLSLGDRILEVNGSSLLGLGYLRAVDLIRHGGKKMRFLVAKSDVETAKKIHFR

[26] = target: SCRIB_1, Q14160
Chain of SCRIB_1, Q14160 (Q14160 718-814): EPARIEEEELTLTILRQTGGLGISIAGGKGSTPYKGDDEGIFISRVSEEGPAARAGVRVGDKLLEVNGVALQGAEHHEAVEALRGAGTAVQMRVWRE

[27] = target: T10, DLG3_2, Q92796
T10 sequence (Q92796 221-321, limits assumed, looked up): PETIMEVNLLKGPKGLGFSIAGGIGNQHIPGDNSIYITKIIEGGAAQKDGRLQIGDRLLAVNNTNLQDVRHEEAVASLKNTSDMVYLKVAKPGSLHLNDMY

[28] = plain residues with an end cap or a label only (N-terminal biotin on a linker: ahx)
[29] = plain residues with an end cap or a label only (N-terminal biotin on a linker: ttds)

pKd [1, 28]: 3.5 | pKd [2, 28]: below the threshold | pKd [3, 28]: below the threshold | pKd [4, 28]: 3.68 | pKd [5, 28]: below the threshold | pKd [6, 28]: below the threshold | pKd [7, 28]: below the threshold | pKd [8, 28]: 4.32 | pKd [9, 28]: below the threshold | pKd [10, 28]: below the threshold | pKd [11, 28]: below the threshold | pKd [12, 28]: below the threshold | pKd [13, 28]: below the threshold | pKd [14, 28]: below the threshold | pKd [15, 28]: below the threshold | pKd [16, 28]: 4.32 | pKd [17, 28]: below the threshold | pKd [18, 28]: below the threshold | pKd [19, 28]: below the threshold | pKd [20, 28]: below the threshold | pKd [21, 28]: below the threshold | pKd [22, 28]: below the threshold | pKd [23, 28]: below the threshold | pKd [24, 28]: 4.68 | pKd [25, 28]: below the threshold | pKd [26, 28]: 4.31 | pKd [27, 28]: below the threshold
Binder: PKMKLNETSF [SHKBP1, Q8TBC3]

pKd [1, 29]: below the threshold | pKd [2, 29]: below the threshold | pKd [3, 29]: below the threshold | pKd [4, 29]: 4.16 | pKd [5, 29]: 3.65 | pKd [6, 29]: 5.48 | pKd [7, 29]: 3.91 | pKd [8, 29]: 4.68 | pKd [9, 29]: 4.49 | pKd [10, 29]: below the threshold | pKd [11, 29]: 4.15 | pKd [12, 29]: 5.24 | pKd [13, 29]: 3.75 | pKd [14, 29]: below the threshold | pKd [15, 29]: below the threshold | pKd [16, 29]: below the threshold | pKd [17, 29]: 3.73 | pKd [18, 29]: below the threshold | pKd [19, 29]: 5.04 | pKd [20, 29]: 3.72 | pKd [21, 29]: below the threshold | pKd [22, 29]: 3.46 | pKd [23, 29]: 4.97 | pKd [24, 29]: 4.44 | pKd [25, 29]: below the threshold | pKd [26, 29]: 3.9 | pKd [27, 29]: 5.53
Binder: KLVIKTETTV [RASSF6, Q6ZTQ3]

pKd [1, 29]: below the threshold | pKd [2, 29]: 3.66 | pKd [3, 29]: 3.58 | pKd [4, 29]: 4.32 | pKd [5, 29]: below the threshold | pKd [6, 29]: 4.69 | pKd [7, 29]: 4.3 | pKd [8, 29]: 4.77 | pKd [9, 29]: 4.32 | pKd [10, 29]: below the threshold | pKd [11, 29]: 4.3 | pKd [12, 29]: 4.55 | pKd [13, 29]: below the threshold | pKd [14, 29]: below the threshold | pKd [15, 29]: below the threshold | pKd [16, 29]: below the threshold | pKd [17, 29]: 3.49 | pKd [18, 29]: below the threshold | pKd [19, 29]: 4.4 | pKd [20, 29]: 3.89 | pKd [21, 29]: 3.55 | pKd [22, 29]: below the threshold | pKd [23, 29]: 5.08 | pKd [24, 29]: 4.84 | pKd [25, 29]: below the threshold | pKd [26, 29]: 4.11 | pKd [27, 29]: 4.53
Binder: SHSSKGETAV [FZD7, O75084]
